Measured values: patent US20160151452A1

Key:
[1] = target: EphA8-Fc; assay: SPR, cupredoxin immobilised on CM5 chip, 100 nM Eph-Fc injected
[2] = target: EphB1-Fc; assay: as above
Sequence of EphB1-Fc (P09759 18-540): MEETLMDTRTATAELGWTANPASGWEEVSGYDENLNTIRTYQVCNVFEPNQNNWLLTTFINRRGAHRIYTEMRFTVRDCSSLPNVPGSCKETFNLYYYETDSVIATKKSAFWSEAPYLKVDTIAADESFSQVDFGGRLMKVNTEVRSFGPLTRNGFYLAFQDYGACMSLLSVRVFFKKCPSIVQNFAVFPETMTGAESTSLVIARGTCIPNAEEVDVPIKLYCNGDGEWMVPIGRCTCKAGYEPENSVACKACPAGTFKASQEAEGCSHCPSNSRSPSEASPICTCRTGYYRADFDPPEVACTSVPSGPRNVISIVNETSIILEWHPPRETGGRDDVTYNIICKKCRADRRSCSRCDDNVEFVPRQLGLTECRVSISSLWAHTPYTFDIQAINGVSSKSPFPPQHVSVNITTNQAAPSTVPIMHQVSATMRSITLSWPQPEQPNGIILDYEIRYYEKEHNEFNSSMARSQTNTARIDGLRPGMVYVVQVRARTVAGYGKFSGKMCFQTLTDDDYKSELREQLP

Sequence of EphA8-Fc (O09127 27-541): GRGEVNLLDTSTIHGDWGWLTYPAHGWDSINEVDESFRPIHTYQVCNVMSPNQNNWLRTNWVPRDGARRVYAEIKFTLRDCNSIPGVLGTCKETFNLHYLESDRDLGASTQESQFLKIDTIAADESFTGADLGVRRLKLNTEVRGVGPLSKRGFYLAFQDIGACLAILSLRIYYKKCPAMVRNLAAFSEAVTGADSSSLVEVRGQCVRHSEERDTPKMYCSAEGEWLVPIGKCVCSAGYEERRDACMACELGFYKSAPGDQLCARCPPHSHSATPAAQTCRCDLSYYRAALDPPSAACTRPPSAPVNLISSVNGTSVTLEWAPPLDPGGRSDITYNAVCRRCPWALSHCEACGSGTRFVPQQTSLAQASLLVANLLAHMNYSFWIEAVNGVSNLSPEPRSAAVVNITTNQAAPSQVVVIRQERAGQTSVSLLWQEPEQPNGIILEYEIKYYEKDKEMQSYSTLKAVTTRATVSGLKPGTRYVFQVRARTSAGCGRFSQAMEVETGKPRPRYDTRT

B1: rusticyanin from Thiobacillus ferrooxidans (protein)
chain: GTLDTTWKEATLPQVKAMLEKDTGKVSGDTVTYSGKTVHVVAAAVLPGFPFPSFEVHDKKNPTLEIPAGATVDVTFINTNKGFGHSFDITKKGPPYAVMPVIDPIVAGTGFSPVPKDGKFGYTDFTWHPTAGTYYYVCQIPGHAATGMFGKIVVK
[1]
  Req (saturating resonance): 79 RU
[2]
  Req (saturating resonance): 79 RU
